# Measured values as given in IntAct's records for PubMed 26551074.
# B1: Telomerase-associated protein of 19 kDa (Tetrahymena thermophila (strain SB210)), D2CVN7 (parent)
# chain: MQQPKRNFDLYKLITDKQIDFQVADLIQDEQSSFVSVRIYGQFKCFVPKSTIQEQLDKIKNLSSKELAKNKIFKFLSEYNKNNQKQDELSHDYYGYFKVQQHQFILNLENAQREASLAVDDFYFINGRIYKTNHDILILQAHHVYQMQKPTLQLLQAASEINQN
# partner: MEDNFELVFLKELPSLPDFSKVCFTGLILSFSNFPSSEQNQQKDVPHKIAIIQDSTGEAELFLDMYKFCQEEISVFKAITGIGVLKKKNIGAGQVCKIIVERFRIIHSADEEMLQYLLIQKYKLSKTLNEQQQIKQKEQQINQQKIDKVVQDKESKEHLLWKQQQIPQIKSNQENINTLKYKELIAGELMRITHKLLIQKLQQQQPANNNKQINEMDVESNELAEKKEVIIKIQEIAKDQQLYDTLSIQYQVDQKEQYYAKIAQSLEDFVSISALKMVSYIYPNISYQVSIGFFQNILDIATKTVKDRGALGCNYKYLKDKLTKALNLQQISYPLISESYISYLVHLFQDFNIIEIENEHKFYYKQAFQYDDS
# B2: Telomerase-associated protein of 45 kDa (Tetrahymena thermophila (strain SB210)), Q6JXI5 (parent)
# chain: B1 partner
# partner: B1 chain
# Variants of: B1
# Conditions: with tap45_tetts TAP45, Q6JXI5
row,effect of a mutation on the interaction,Variant
1,disrupting interaction strength,MQQPKRNFDLYKLITDKQIDFQVADLIQDEQSSFVSVRIYGQFKCFVPKSTIQEQLDKIKNLSSKELAKNKIFKFLSEYNKNNQKQDELSHDYYGYFKVQQHQFILNLENAQREASLAVDDFYFINGRIYKTNHDILILQAHHVYQWQKPTLQLLQAASEINQN [M147W]
2,disrupting interaction strength,MQQPKRNFDLYKLITDKQIDFQVADLIQDEQSSFVSVEIYGQFKCFVPKSTIQEQLDKIKNLSSKELAKNKIFKFLSEYNKNNQKQDELSHDYYGYFKVQQHQFILNLENAQREASLAVDDFYFINGRIYKTNHDILILQAHHVYQMQKPTLQLLQAASEINQN [R38E]
3,disrupting interaction strength,MQQPKRNFDLYKLITDKQIDFQVADLIQDEQSSFVSVRIYGQFKCFVPKSTIQEQLDKIKNLSSKELAKNKIFKFLSEYNKNNQKQDELSHDYYGYFKVQQHQFILNLENAQREASLAVDDFYFINGRIYKTNHDILILQAHHVAQMQKPTLQLLQAASEINQN [Y145A]
4,disrupting interaction strength,MQQPKRNFDLYKLITDKQIDFQVADLIQDEQSSFVSVRIYGQFKCFVPKSTIQEQLDKIKNLSSKELAKNKIFKFLSEYNKNNQKQDELSHDYYGYFKVQQHQFILNLENAQREASLAVDDFYFINGRIYKTNHDILILQAHHVYQMQKPTLQLLQAASERNQN [I161R]

# Variants of: B2
# Conditions: with tap19_tetts TAP19, D2CVN7
row,effect of a mutation on the interaction,Variant
1,disrupting interaction strength,MEDNFELVFLKELPSLPDFSKVCFTGLILSFSNFPSSEQNQQKDVPHKIAIIQDSTGEAELFLDMYKFCQEEISVFKAITGIGVLKKKNIGAGQVCKIIVERFRIIHSADEEWLQYLLIQKYKLSKTLNEQQQIKQKEQQINQQKIDKVVQDKESKEHLLWKQQQIPQIKSNQENINTLKYKELIAGELMRITHKLLIQKLQQQQPANNNKQINEMDVESNELAEKKEVIIKIQEIAKDQQLYDTLSIQYQVDQKEQYYAKIAQSLEDFVSISALKMVSYIYPNISYQVSIGFFQNILDIATKTVKDRGALGCNYKYLKDKLTKALNLQQISYPLISESYISYLVHLFQDFNIIEIENEHKFYYKQAFQYDDS [M113W]
2,disrupting interaction strength,MEDNFELVFLKELPSLPDFSKVCFTGLILSFSNFPSSEQNQQKDVPHKIAIIQDSTGEAELFLDMYKFCQEEISVFKAITGIGVLKKKNIGAGQVCKIIVERFRIIHSADERMLQYLLIQKYKLSKTLNEQQQIKQKEQQINQQKIDKVVQDKESKEHLLWKQQQIPQIKSNQENINTLKYKELIAGELMRITHKLLIQKLQQQQPANNNKQINEMDVESNELAEKKEVIIKIQEIAKDQQLYDTLSIQYQVDQKEQYYAKIAQSLEDFVSISALKMVSYIYPNISYQVSIGFFQNILDIATKTVKDRGALGCNYKYLKDKLTKALNLQQISYPLISESYISYLVHLFQDFNIIEIENEHKFYYKQAFQYDDS [E112R]
3,disrupting interaction strength,MEDNFELVFLKELPSLPDFSKVCFTGLILSFSNFPSSEQNQQKDVPHKIAIIQDSTGEAELFLDMYKFCQEEISVFKAITGIGVLKKKNIGAGQVCKIIVERFRIIHSWDEEMLQYLLIQKYKLSKTLNEQQQIKQKEQQINQQKIDKVVQDKESKEHLLWKQQQIPQIKSNQENINTLKYKELIAGELMRITHKLLIQKLQQQQPANNNKQINEMDVESNELAEKKEVIIKIQEIAKDQQLYDTLSIQYQVDQKEQYYAKIAQSLEDFVSISALKMVSYIYPNISYQVSIGFFQNILDIATKTVKDRGALGCNYKYLKDKLTKALNLQQISYPLISESYISYLVHLFQDFNIIEIENEHKFYYKQAFQYDDS [A109W]
4,disrupting interaction strength,MEDNFELVFLKELPSLPDFSKVCFTGLILSFSNFPSSEQNQQKDVPHKIAIIQDSTGEAELFLDMYKFCQEEISVFKAITGIGVLKKKNIGAGQVCKIIVERFRIIHSRDEEMLQYLLIQKYKLSKTLNEQQQIKQKEQQINQQKIDKVVQDKESKEHLLWKQQQIPQIKSNQENINTLKYKELIAGELMRITHKLLIQKLQQQQPANNNKQINEMDVESNELAEKKEVIIKIQEIAKDQQLYDTLSIQYQVDQKEQYYAKIAQSLEDFVSISALKMVSYIYPNISYQVSIGFFQNILDIATKTVKDRGALGCNYKYLKDKLTKALNLQQISYPLISESYISYLVHLFQDFNIIEIENEHKFYYKQAFQYDDS [A109R]
